Test results reported in the nanobody polyreactivity screen of Harvey et al. (2022).

Experiment: yeast display, Sf9 membrane polyspecificity reagent, FACS + sequencing; frameworks hold sequencing errors
Summary of the method: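 Galactose-induced (36–48 hours) yeast carrying a synthetic nanobody display library were exposed to 10% biotinylated, detergent-solubilized Sf9 membrane reagent at 4 °C for 1 hour. FACS followed streptavidin microbead enrichment, using low and high (top ~1%) gates for expression (anti-HA) and reagent binding (streptavidin). Colony PCR, MiSeq 2 × 250 sequencing and CDR-length filtering followed. Labels for polyreactivity reflect the gate of origin.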

Sequence	polyreactivity (PSR sort gate)
QVQLVESGGGLVQAGGSLRLSCAASGRTFWSYAMGWYRQAPGKEREFVAAISYSGSSTYADSVKGRFTISRDNAKNTVYLQMNSLKPEDTAVYYLLRGQGTQVTVSS	low polyreactivity
QVQLVESGGGLVQAGGSLRLSCAASGLTFFKYTMGWYRQPPGKERELVSAINGGGSTNYADSVKGRFSISRDNAKNTVYLQMNSLKPEDTAVYYCAAGLQYGYDYWGQGTQVTVSS	low polyreactivity
QVHLVESGGGLVQAGGILRLSCAASGSIFLYYAMGWYRQAPGKERELVAAITGGGGTNYADSVKGRFTISRDNAKNTFYLQMNSLKPEDTAVYYCGADPSGQFPYSYYNYDYDYWGQGTQVTVSS	low polyreactivity
QVQLVESGGGLVQAGGSLRLSCAASGSISTVNVMGWYRQAPGKERELVAAISSGTSTHYADSVKVRFTISRDNAKNTVYLQMNSLKPEDTAVYYCAAYFYRQYLYFLYEYDYWGQGTQVTVSS	low polyreactivity
QVQLVESGGGLVQAGGSLRLSCAASGSIIARYAMGWYRQAPGKERELVAANTWSATSTYYADSVKGRFTISRDNAKNTVYLQMNSLKPEDTAVYYCNAGASYFLVISQSRGDYWGQGTQVTVSS	low polyreactivity
QVQLVESGGGLVQAGGSLRLSCAASGSIFRIYAMGWYRQAPGKERELVAAISFSTGSRTYYADSVKGRFTISRDNAKNTVYLQMNSLKPEDTAVYYCAAEYHPRVLYPNWYDYWGQGTQVTVSS	low polyreactivity
QVQLVESGGGLVQAGGSIRLTCAASGSIFVFYAMGWYRQAPGKEREFVATITWSGTSTYYADSVKGRFSISRDNAKNTVYLQMNSLKPEDTAVYYCAARYLGGRRSGDYSRYYWGQGTQVTVSS	high polyreactivity
QVRLVETGGGLVQAGGSLRLSCAASGSTFPHYTMGWYIQAHGKERELVAVISRSGRTYYADSVKGRFTISRDNAKNTFYLQMNSLKPEDTAVYYCDVLVGRLVWSYNHWGQVTQVTVSS	high polyreactivity
QVQLVESGGGLVQAGGSLRLSCAASGSIFAYYAMGWYRQAPGKERELVAAISSSGGSTTYADSVKGRFTISRDNAKNTVYLQMNSLKPEDTAVYYCNAAWRRSRYYYWGQGTQVTVSS	high polyreactivity
QVQLQESGDGLVQAGGSLRLSCAASGNIYDADIMGWYRQAPGKERELVTSITDGGSTNYADSVKGRFTISRDNAKNTVYLQMNSLKPEDTAVYYCAAIAYPDIPTSFDYNSDYSYWGQGTQVTVSS	low polyreactivity
QVQLVESGGGLVQAGGILRLSCAASGRTFNQNAMGWYRQAPGKERELVAAITSRGGSTFYAASVKGRFTISRDNAKNTVYLQMNSLKPEDTAVDYCAAPRKQLEVGPGYYWGQGTQVTVSS	high polyreactivity
QVQLVESGGGLVQAGGRLRLICAASGFTFGGNVMGWYRQAPGKERELVAAISSSGGSTYYADSVKGRFTISRDNAKNTVYLQMNSLKPEDTAVYYCAKYAVFYQYRYYHWGQGTQVTVSS	high polyreactivity
QVQLVESGGGLVQAGGSLRLSCAASGSIFVPNAMGWYSQAPGKERELVASISYSGTSTYYADSVKGRFTISRDNAKNTVYLQMNSLKPEDTAVYYCAVTWYPWYYGYWGQGTQVTVSS	high polyreactivity
QVQLVESGGGLVQAGGSLRLSCAASGSIFVRNAMGWYRQAPGKERELVAAISGSGGRTYYADSEKGRFTISRDNAKNTVYLQMNSLKPEDTAVYYCAKEVTYWYGGNYDYWGQGTQVTVSS	high polyreactivity
QVQLVESGGGLVQAGGSLRLSCAASGLIFYENAMGWYRQAPGKERELVAAINYDGDSTYYADSVKGRFTISRDNAKNTFYLQLNSLKPEDTAVYYCAADGGWVLFWMDYWGQGTQVTVSS	low polyreactivity
QVQLVESGGGLVQAGGSLRLSCAASGSIFRPYTMGWYRPAPGKERELVAGITSGGGTYYADSVKGRFTISRDNAKNTVYLQMNSLKPEDTAVYYCAADNWKTRSLVDYWGQGTEVTVSS	high polyreactivity
QVQLQESGGGLVQVGGSQRLSCAASGNIFYNYAMVWYRNAQGKEREFDATIKNGTSINYADSVKGRFTISRDNAKNTVYLQMNSLTPEDTAVYYCAADLSWTDNLFYWGQGTQVTVSS	low polyreactivity
QVQLVESGGGIVQAGGSLRLSCAASGIIFPYYAMGWYRQAPGKVRELVAAISSSGGSTHYADSVKGRFTISRDTAKNTVYLQMHSLKPEDTAVYYCAARDINRYPKAQPTDRSIYYWRQGTQVTVSS	high polyreactivity
QVQLVESGGGLVQAGGSLRLSCAASGRTFYGYAMGWYRQAPGKERELVAAITQRGVSTYADSVKGRFTISRDNAKNTVYLQMNSLKPEDTAVYYCAAEYYAYPYGDDYDYWGQGTQVTVSS	low polyreactivity
QVQLVESGGGLVQAGGSLRLSCAASGRTFGSYAMGWYRQAPGTERELVAAITWSGTGTYYADSVKGRFTISRDKAKNTVYLQMHSLKPEDTAVYYCNTDRWYAYDWGQGTQVTVSS	high polyreactivity
QVQLVESGGGLVQAGGRLRLSCAASGSTFYLNAMGWYRPAHGKERELVAAITRIGGSTYYADSVKGRFTISRDNAKNTVYLQMYSLTPEDTAVYYCAKDYGQARHDRYGYWGAGTQVTVSS	low polyreactivity
QVQLVESGGGLVQAGGSLRLSCAASGRIFDRYVMGWYRQAPGKERELVAAISSGGSTYYADSVKGRFTISRDNAKNTVYLQMNSLKPEDTAVYYCAADRRSKYDYWGQGTQVTVSS	low polyreactivity

Sequence	polyreactivity (PSR sort gate)
QVQLVESGGGLVQAGGSLRLSCAASGITFAYNAMGWYRQAPGKERELVAAITTGGDTYYADSVKGRFTISRDNAKNTVYLQMNSLKPEDTAVYYCAATPTYWYLWSPYDYWGQGTQVTVSS	low polyreactivity
QVQLVESGGGLVQAGGRLRISCAASGSIFEGNGMGWYRQAPGKQREFVAAITNRGGSTYYADSVKGRFTISRDNAKNTVYVQMISLKPEDTAVFYCAADWTTNPDYQQSYFVSYEYNYWGHGTQVTVSS	low polyreactivity
QVQLVESGGGLVQAGGSLRLSCAASGRTFYSNVMGWYRQAPGKERELVAAISSSTYYADSVKGRFTISRDNANNTVYLQMNSLKPEDTAVYYCAAYSRYYPYYRYGYLGQGTQVTVSS	high polyreactivity
QVQLVESGAGLVQAGGSLRLSCAASGITFYDYAMAWYRQAPGKERELVAAISRSGITYYADSVKGRFTISRDNAKNTVYLQMNSLKPEVTAVYYCAAGRSFDQSMYYWGQGTQVTVSS	high polyreactivity
QFQLVESGGGLVQAGGSLRLSCAASGRIVGRNAMGWYRQAPGKERELVAAISGNGGSTYYADSVKGRFTISRDNAKINVYLQMNSLKPEDTAVYYCATKYFSRMDYWGKGTQVTVSS	high polyreactivity
QVQLVESGGGLVQAGGSLRLSCAASGRIFGQNTMGWYRQAPGKERELVAAITWNGGRTYYADSVKGRFTISRDNAKNTVYLQMNSLKPEDTAVYYCAARYSTYPWYNYWGQGTQVTVSS	high polyreactivity
QVQLVESGGGLVQAGGSLRLSCAASGSIFIRNVMGWSRQAPGKERELVAAISSRGGSTYYADSVKGRFTISRDNAKNTVDLQMNSLKPEDTAVYYCNRYSYLFPYYWKYDYWGQGTQVTVSS	high polyreactivity
QVQLVDSGGGLVQAGGSLRLSCAASGRTFWYYDMGWYRQAPGKERELVATINNVGSTHYADSVKGRFTISRDNAKNTVYLQMNSLNPEDTAVYYCARASYGKMDYWGQGTQLTVSS	high polyreactivity
QVQLVESGGGLVQAGGSLRLICAASGRIFGVYAKGWYRQAPGKERDFVATNSNRGGGSTYYADSVKGRFTISRDNAMNTVYLQMNSLKPEDTSVYYCNVRARYPFGYDYWGQGTQVTVSS	high polyreactivity
QVQLVESRGGLVQAGGSLRLSCPASGYIFYRNAMGWYRQEPGKERELVAAITYTGGRTYYPDSVKGRFTISRDNAKNTVYLQMNSLNPEDTAVYYCNADGRVFVVRPYYDYEYWGQGTQVTVSS	low polyreactivity
QVQLVESGGGLVQAGGSLRLSCAASGRTFGRYAMGWYRQAPGKERELVAAITWSGGSTYYADSVKGRFTISRDYAKNTVYLQMNSLKPEDTAVYYCAAARVYFGDLFVVYYFIQYDYWGQGTQVTVSS	low polyreactivity
QVQLVESGGGLVQAGGSLRLSCAASGFTFYSYAMGWYRQAPGKERELVATITASGGSTYYADSVKGRFTISRDNAKNSVYLQMISLKPEDTAVYYCAAYHPHGFDYYRYYYWGQGTQVTVSS	high polyreactivity
QVQLVESGGGLVQAGGSLRLSCAASGRTLTGNAMGWYRPAPGKERELVAVISYSGTNTRYADSVKGRFTISRDNAKNTVYLQMNSLKPEDTAVYYCAADWLGISVVRDPFDHWGQGTQVTVSS	high polyreactivity
QVQLVESGGGLVQAGGSLRLSCAASGRTIDDYDMGWYRQAPGKERELVADINSGGSTYYADSVKGRFTISRDNAKNTVYLQMNSLKPEDTAVYYCAATLVPWPYTGPRYGYWGQGTQVTVSS	high polyreactivity
QVQLVESGGCLLQAGGSLRLSCAASGFTFRKNAMGWYRDAPGKERQLVAAISSGTSTYYADSVKVRFTISRDNAKNTVYLQMNSLKPEDTAVYYCAAARYRTDDYCGQGTQVTVSS	high polyreactivity
QVQLVESGGGLVQAGGSLRLSCAASGRIFGNNAMGWYRQAPGKERELVAAISWSARSTYADSVKGRFTISRDNAKNTVYLQMNSLKPEVTAVYYCNADSAARKGWPIYGYWGQGTKVTVSS	high polyreactivity
QVQLVESGGGLVQAGGSLRLSCAASGRIFRDYTMGWYRTAPGKERELVAAITSGGSTYYADSVKGRFTISRDTAKNTVYLQMNSLKPEDTAVYYCNADGYVPGVDYWGLGTQVTVSS	low polyreactivity
QVQLVESGGGLVQAGGSLRLSCAASGRIFYAYAMGWYRQAPGKERELVAAISYIAGITYYADSVKGRFTISRDNAKNTVYLQMNSLIPEDTAVYYCAADDMVTGPLDFWGQGTQVTVSS	low polyreactivity
QVQLVESGGVLVQAGGSLRLSCAASGSIFGSYTMGWYRQAPGKEREMVAAISGGGASTYYADSVKGRFTISRDNAKNTVYLQMNSLKPEDTAVYYCYKRGVIERRKPWHYSTFDYWGQGTQVTVSS	low polyreactivity
QVQLVESGGGLVQAGGSLRLSCAASGSIFYVYAMGWYRQAPGNERELVAAINTSGGSTFYADSVKGRFTISRDNAKNTVYLQINSLKPEDTAVYYCAAERYRYRSTDTMGYWGQGTQVTVSS	low polyreactivity
QVQLVESGGGLVQAGGSLRLSCAASGSILYTYAMGWYRQAPGKERELVAAISRSGGSTYYADSVKGRFTISRDTAKNTVYLQMNSLKPEDTAVYYCNAVRYLTRLGRYDYWGQGTQVTVSS	high polyreactivity
